From the nanobody polyreactivity screen of Harvey et al. (2022) come the findings set out here.

A short description of the series: yeast display, Sf9 membrane polyspecificity reagent, FACS + sequencing; frameworks hold sequencing errors. Put shortly: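 After 36–48 hours of galactose induction, yeast (Saccharomyces cerevisiae BJ5465) displaying a synthetic nanobody library were stained at 4 °C for 1 hour with 10% biotinylated, detergent-solubilized Sf9 membrane reagent. Streptavidin microbeads enriched the stained cells before FACS sorting into low and high (top ~1%) gates on anti-HA and streptavidin fluorescence. Each clone's polyreactivity label reflects its gate of origin.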
On to “QVQLVESGGGLVQAGGSLRLSCAASGITFVYYAMGWYRQAPGKERELVASISSADNTHYADSVKGRFTISRDNAKNTVYLQMNSQKPEDTAVYYCAADYWWNLRHYSTGGYWGQGTQVTVSS”, for which the “polyreactivity (PSR sort gate)” value is “low polyreactivity”.
For “QVQLVESGGGLVQAGGSLRLSCAASGRIFRVNAMGRYRQAPGKERELVAAITRSGGSTYYADSVKGRFTISRDNAKNTVYLQRNSLKPEDTAVYYCNADPRLRQTRDYWGQGTQVTVSS”, the “polyreactivity (PSR sort gate)” value is recorded as “high polyreactivity”.
On to “QVQLVESGGGLVQAGGSLRLSCAASGIIFYRYAMVWYRQAPGKERELVAAITWSGVSTSYADSVKGRFTISRDNAMNTVYLQMTSLKPEDTAVYYCNKDQGTLYGDMDSWGQGTQVTVSS”, for which the “polyreactivity (PSR sort gate)” value was “low polyreactivity”.
“QVQLVESGGGLVQAGGSLRLSCAASGFTFFDYVMGWYRQAPGKERELVAAISSSGGSTNYADSVKGRFTISRDHAKNTVYLQMNSLKPEDTAVYYCNKVTYGYAYWRYDGYDYWGQGTQVTVSS”: the “polyreactivity (PSR sort gate)” value is “low polyreactivity”.
The same measure for “QVQLVESGGGLVQAGGSLSISCAASGLSFSVNAMGWYRPAPGKEREFVAAISSSGGRTYYADSVKGRFTISRDHAKNTVYLQMNSLKPEYTAGYYCATAQGSRVDYWGQGTQVTLSS”: “high polyreactivity”.
“QVQLVESGGGLVQAGGSLRLSCAASGGIFRYYAMGWYRQAPGKERELVAAISSGGRTYYADSVKGRFTISRDNAKNTVYLQMNSLKPEDTAVYYCNADRYWGYDYWGQGTQVTVSS”: the “polyreactivity (PSR sort gate)” value is given as “high polyreactivity”.
For the sequence “QVQLVESGGGLVQAGGSLRLSCAASGRTFGSNAMGWYRQAPGKERELVAAISFSGGSTYYADSVKGRFTISRDNAKNTVYLQMNSLKPEDTAVYYCAAEYPQKGDRGSRRRIDGYWGQGTQVTVSS”, the “polyreactivity (PSR sort gate)” value was “high polyreactivity”.
The same measure for “QVQLVESGGGLVQAGGSLRLSCAASGRTFPYNAMGWYRQAPGNERELVAGISSGGTTTYADSVKGRFTISRDNAKNTVYLQMNSLKPEVTAVYYCAATVIIFDHSRPGWDDYDYWGQGTQVTVSS”: “low polyreactivity”; for “QVQLVESGGGLVQAGGSLRLSCAASGRIFSYYAMGWYRQAPRKERELVAAITWSGGSTYYADSVKGRFTISRDNAKNTVYLQMNSLKPEDTAVYYCAADRRRWLYYGYDYWGQGTQVTVSS”: “high polyreactivity”; for “QVQLVESGGGLVQAGGSLRLSCAASGRTFNSYAMGWYRQAPGKERELVASISSGGSTYYADSVKGRFTLSRDNAKHTDYLQMNSLKPEDTAVYYCAAKSVAYYSYFRRDYWGQGTQVTVSS”: “low polyreactivity”.
For the sequence “QVQLVESGGGLVQAGGSLRLSCAASGRISGYNAMGWYRPAPGKQRELVAVITGSGGTYYADSVKGRFTISRDNAKNTVYLQMNSLKPEDSAVYYCAAGLAIRTYYPRYDYWGQGTQVTVSS”, the “polyreactivity (PSR sort gate)” value was “low polyreactivity”.
The same measure for “QVQLVESGGGLVQAGGSLRLSCASSGSIFVTYTMGWYRQAPGKERELVATISGGSSTYADSVKGRFTISRDNAKNTVYLQMNSLKPEDTAVYYCNAVWYFKPPPLYYIPYRQYDYWGQGTQVTVSS”: “low polyreactivity”; for “QVQLVESGGGLVQAGGSLRLSCAASGSIFAVYTMGWYRQAPGKEREFVAAITKSGGRTYYADSVKGRFTISRDNAKNTVYLQMNSLNPEDTAFYYCARRRTIPYTLVDYDSWGQGTQVTVSS”: “low polyreactivity”; for “QVQLVESGGGLVQAGGSLRLSCAASGSIFGGYTMGWYRQAPGKERKLVAAISRRGGNTYYADSVKGRFTISRDNAKNTVYLLMNSLKPEDTAVYYCAVRWPSARIPVKLDYWGQGTQVTVSS”: “high polyreactivity”.
As for “QVHLVESGGGLVQAGGSLRLSCAASGRNFLYYAMGWYRQAPGKERELVAASTSGDSTYYADSVKGRFTISRDNAKNTVYLQRNSLKPEDTAVYYCNAYQWGGRYWLVTYDYWGQGTLVTVSS”, the entry is “low polyreactivity”; as for “QVQLVESGGGLVQAGGSLRLSCAASGFTFGPYTMGWYRQAPGKERELVAAISRSGTGTYYADSVKGRFTISRDNAKNTVYLQMNSLKPEDTAVYYCAADNGDNHGYYWGQGTQVTLSS”, “high polyreactivity”.
